Test results: US20240301022A1 (ASTON UNIVERSITY, published 2024)

What was measured:
[1] = molecular target: T1, human β3-adrenergic receptor (human, UniProt P13945 1-408); assay: [125I] ZAG binding to crude membranes of transfected CHO-K1 cells; reference is ZAG on β2-AR
T1 construct: whole, on cells; CHO-K1 cells transfected with the β3-AR, from Astra Zeneca; also called β3-AR; β-3AR
Method: (§1) Binding studies were carried out at 37° C. by incubating membranes (500 μg protein) in 0.4 ml 50 mM Tris HCl, pH 7.5, containing 0.5 mM MgCl₂ for 60 min with various concentrations of [¹²⁵I]
(§2) Non-specific binding was determined by the binding of [¹²⁵I]

[2] = molecular target: T2, human β1-adrenergic receptor (human, UniProt P08588 1-477); assay: [125I] ZAG binding to crude membranes of CHO-K1 cells transfected with human β1-AR, non-linear regression
T2 construct: whole, on cells; CHO-K1 cells transfected with the human β1-AR, from the University of Nottingham; also called β1-AR; β-1AR
T2 sequence (P08588 whole entry): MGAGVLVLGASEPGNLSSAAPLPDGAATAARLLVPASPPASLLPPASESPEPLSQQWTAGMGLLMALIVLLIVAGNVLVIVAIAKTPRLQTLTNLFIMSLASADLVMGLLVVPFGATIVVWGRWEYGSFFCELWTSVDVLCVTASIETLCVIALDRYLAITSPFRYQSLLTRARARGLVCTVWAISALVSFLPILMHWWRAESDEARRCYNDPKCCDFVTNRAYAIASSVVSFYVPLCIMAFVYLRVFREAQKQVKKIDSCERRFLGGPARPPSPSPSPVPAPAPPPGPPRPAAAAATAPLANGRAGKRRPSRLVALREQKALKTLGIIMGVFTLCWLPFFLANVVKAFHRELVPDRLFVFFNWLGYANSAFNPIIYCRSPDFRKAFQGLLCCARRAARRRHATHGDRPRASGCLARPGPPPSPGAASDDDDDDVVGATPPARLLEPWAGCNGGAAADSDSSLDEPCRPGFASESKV
Method: as §1, §2

[3] = molecular target: T3, human β2-adrenergic receptor (human, UniProt P07550 1-413); assay: [125I] ZAG saturation binding to crude membranes of CHO-K1 cells transfected with human β2-AR, non-linear regression
T3 construct: whole, on cells; CHO-K1 cells transfected with the human β2-AR, from the University of Nottingham; also called β2-AR; β-2AR
Method: as §1, §2

[4] = molecular target: T1, human β3-adrenergic receptor; assay: [125I] ZAG saturation binding to crude membranes of CHO-K1 cells transfected with human β3-AR, non-linear regression
Method: as §1, §2

[5] = molecular target: T3, human β2-adrenergic receptor; assay: [125I] ZAG binding to crude membranes of transfected CHO-K1 cells; reference is ZAG on β3-AR
Method: as §1, §2

T1 sequence (P13945 whole entry): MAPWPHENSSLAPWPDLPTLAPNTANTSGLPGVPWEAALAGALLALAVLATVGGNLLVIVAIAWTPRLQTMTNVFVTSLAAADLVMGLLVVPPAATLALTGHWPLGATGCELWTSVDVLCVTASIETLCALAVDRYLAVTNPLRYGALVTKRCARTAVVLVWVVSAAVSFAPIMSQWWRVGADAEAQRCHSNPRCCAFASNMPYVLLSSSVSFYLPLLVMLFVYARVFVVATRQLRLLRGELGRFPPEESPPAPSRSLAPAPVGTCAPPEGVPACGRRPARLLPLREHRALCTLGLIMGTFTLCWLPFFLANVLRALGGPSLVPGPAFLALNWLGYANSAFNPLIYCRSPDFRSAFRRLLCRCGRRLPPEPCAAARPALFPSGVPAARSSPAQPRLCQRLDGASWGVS

B1: recombinant human zinc-α2-glycoprotein (ZAG) (ligand)
chain: QENQDGRYSLTYIYTGLSKHVEDVPAFQALGSLNDLQFFRYNSKDRKSQPMGLWRQVEGMEDWKEDSQLQKAREDMETLKDIVEYYNDSNGSHVLQGRFGCEIENNRSSGAFWKYYYDGKDYIEFNKEIPAWVPFDPAAQITKQKWEAEPVYVQRAKAYLEEECPATLRKYLKYSKNILDRQDPPSVVVTSHQAPGEKKKLKCLAYDFYPGKIDVHWTRAGQVQEPELRGDVLHNGNGTYQSWVVVAVPPQDTAPYSCHVQHSSLAQPLVVPWEAS
modifications: 125I label (iodo bead labelling) in the membrane binding studies; labelled residues not stated
notes: Glycoprotein; also called Zn-α2-glycoprotein; rhZAG
Bmax relative to β2-AR [1]: ~3 fold
Kd relative to β2-AR [1]: ~0.5 fold
binding result [2]: no binding
Kd [3]: 71 nM
Kd [4]: 46 nM
Bmax relative to β3-AR [5]: 20%
Kd relative to β3-AR [5]: 2 fold
